Common to all, as to details: chain copies: 2; label: tethered by stalled RNA polymerase
Series [1] has as its target T1, MS2 coat protein, dlFG mutant (Escherichia phage MS2, UniProt P03612, del68-81insG). The experiment in a line: 4 mM Mg2+; theophylline 2 mM; RNA-MaP array; 100 mM Tris-HCl pH 7.5, 80 mM KCl, 4 mM MgCl2, 0.1 mg/mL BSA, 1 mM DTT, 0.01 mg/mL yeast tRNA, 0.01% Tween-20; protein 1.5 nM to 3 uM; 37 C (Table S3).
Series [2] concerns the target T1, MS2 coat protein, dlFG mutant. The experiment in a line: 4 mM Mg2+; L-tryptophan 2.4 mM; RNA-MaP array; 100 mM Tris-HCl pH 7.5, 80 mM KCl, 4 mM MgCl2, 0.1 mg/mL BSA, 1 mM DTT, 0.01 mg/mL yeast tRNA, 0.01% Tween-20; protein 1.5 nM to 3 uM; 37 C (Table S3).
The target is the same in series [3]. Put plainly: 4 mM Mg2+; FMN 200 uM; RNA-MaP array; 100 mM Tris-HCl pH 7.5, 80 mM KCl, 4 mM MgCl2, 0.1 mg/mL BSA, 1 mM DTT, 0.01 mg/mL yeast tRNA, 0.01% Tween-20; protein 1.5 nM to 3 uM; 37 C (Table S3).
For series [4] the target is unchanged. Put plainly: 4 mM Mg2+; no ligand; RNA-MaP array; 100 mM Tris-HCl pH 7.5, 80 mM KCl, 4 mM MgCl2, 0.1 mg/mL BSA, 1 mM DTT, 0.01 mg/mL yeast tRNA, 0.01% Tween-20; protein 1.5 nM to 3 uM; 37 C (Table S3).
The target is the same in series [5]. Put plainly: 4 mM Mg2+; miR-208a RNA 100 nM (AU…UUGU); RNA-MaP array; 100 mM Tris-HCl pH 7.5, 80 mM KCl, 4 mM MgCl2, 0.1 mg/mL BSA, 1 mM DTT, 0.01 mg/mL yeast tRNA, 0.01% Tween-20; protein 1.5 nM to 3 uM; 37 C (Table S3).

B1: Eterna 7618605 (Same State - Theophylline A) (ssRNA)
RNA: UGUAACAUGAGGAUCACCCAUGUGAGUGAUACCAGAUUAGUAUUAGUCCCUUGGCAGCACAUUGGGCGAGUGUAUAGUCUAUGCG
In general, Kd refers to the equilibrium constant for the complex coming apart. In series [1], B1 registered a Kd of 109 nM.

B2: Eterna 7644049 (Same State - Tryptophan A) (ssRNA)
RNA: ACAUGAGGAUCACCCAUGUCAUGAGGUUCACGAGGACCGGUACGGCCGCCACUCGACAUGAGGGUCACCCGUGAACGGAACACCC
As to B2, binding in series [2] was put at a Kd of 20 nM.

B3: Eterna 6430193 (Small Loop Exclusion NG 3) (ssRNA)
RNA: GUCGAAACCAUACUGGUCGACGGUCAGGAUAUACAUGAGGAUCACCCAUGUGCUAUUGAUACUAUGUAGAAGGGACCCACCGCA
B3: the Kd in series [3] was 24.4 nM. This lies in the double-digit nanomolar range.

B4: Eterna 7740449 (Exclusion - Theophylline A) (ssRNA)
RNA: AUGUUUUAUAAACUCAUGGUUUCGACAGAUACCAGCUUCGAGAGGAGCCCUUGGCAGCUGCAUGAGUGAUGUUCAUGUACGAAGA
B4 had a Kd in series [4] above 3000 nM.

B5: Eterna 1184 (Exclusion - Theophylline B) (ssRNA)
RNA: AACACCCGCUAUGAUACCAGUGAAGUGAUGUUUUACUCCGGGCGUAAGACAAAGGUCAGCCACCCUUGGCAGCAUAUCCGCGUAU
The molecule B5 yielded a Kd in series [4] above 3000 nM.

B6: Eterna 7613251 (Exclusion - Tryptophan A) (ssRNA)
RNA: CGGACAUGAGGAUCACCCAUGUCGUCGACGCGAGGACCGGUACGGCCGCCACUCGCAUGCCAAUGAGCGCAUGCGGCCUGGGUAU
For the molecule B6, the Kd in series [2] was determined as 22.8 nM. That is a double-digit nanomolar value.

B7: Eterna 12069 (Sensor v3, turn-off variant 1) (ssRNA)
RNA: UGUUGUUGUUUCCGUUCUUACAUGAGGAUCACCCAUGUUUCUUGUCGUGCUCGCGUUGCUCGUCAGACUACCUGUUG
As for B7, the dissociation constant (Kd) in series [5] is 111 nM. That is a sub-micromolar value.

B8: Eterna 7741560 (Exclusion - FMN A) (ssRNA)
RNA: UCCUAGGCUCGAAAGAGCCUAGGAUUGACUCAGGAUAUCCGGAAACGGAGAAGGGAGUCACUAGUGAUGUUAGGGAUUCCCUAUU
B8 came in with a Kd in series [4] above 3000 nM.

B9: Eterna 7763203 (Exclusion - FMN B) (ssRNA)
RNA: AAAUAACAGGCAGGAUAUGCUUAGUAAUAAGGCCAUAUAUACGUAUAGAGUGAUGUUUUGUACAAAGCAGAAGGGCUAAAUCCAU
With B9, the Kd in series [4] is above 3000 nM.

The record behind these values is paper PMC9170038, “Crowdsourced RNA design discovers diverse, reversible, efficient, self-contained molecular switches”.
